Ends that are not written are not given here.
Legend:
fibrinogen (human) = fibrinogen (human) (UniProt P02671); experiment: optical trap-based force spectroscopy; Mn^2+-activated αIIbβ3 on a laser-trapped latex bead tapped against a silica pedestal covalently coated with fibrinogen; 0.1 M HEPES, pH 7.4, 2 mg/ml BSA, 0.1% Triton X-100; two-state fit of the rupture force profile
[1] = target: polymerized fibrin (human) (UniProt P02679); experiment: optical trap-based force spectroscopy; as a1, but with non-activated αIIbβ3 (no Mn^2+ activation) on the bead
monomeric fibrin (human) = monomeric fibrin (human) (UniProt P02679); experiment: optical trap-based force spectroscopy; Mn^2+-activated αIIbβ3 on a laser-trapped latex bead tapped against a silica pedestal covalently coated with monomeric fibrin; 0.1 M HEPES, pH 7.4, 2 mg/ml BSA, 0.1% Triton X-100; two-state fit of the rupture force profile
[2] = target: polymerized fibrin (human) (UniProt P02679); experiment: optical trap-based force spectroscopy; Mn^2+-activated αIIbβ3 (or BSA) on a laser-trapped 2.0 µm latex bead tapped against the edge of a fibrin clot in a flow chamber; 0.1 M HEPES, pH 7.4, 2 mg/ml BSA, 0.1% Triton X-100; 5 Hz, 800 nm amplitude; clot from re-calcified plasma or from purified fibrinogen, which one gave the tabulated data is not given; two-state fit of the rupture force profile
[3] = target: platelet integrin αIIbβ3 (human) (UniProt P05106); experiment: optical trap-based force spectroscopy; as a5, with free γC-12 or cRGDFK present; concentrations not given
[4] = target: platelet integrin αIIbβ3 (human) (UniProt P05106); experiment: optical trap-based force spectroscopy; as a7, with free γC-12 or cRGDFK present; concentrations not given
[5] = target: platelet integrin αIIbβ3 (human) (UniProt P05106); experiment: optical trap-based force spectroscopy; as a1, with a competitive antagonist of αIIbβ3 (γC-12, cRGDFK or eptifibatide) present; concentrations not given

Chain of UniProt P02679 (P02679 whole entry, looked up): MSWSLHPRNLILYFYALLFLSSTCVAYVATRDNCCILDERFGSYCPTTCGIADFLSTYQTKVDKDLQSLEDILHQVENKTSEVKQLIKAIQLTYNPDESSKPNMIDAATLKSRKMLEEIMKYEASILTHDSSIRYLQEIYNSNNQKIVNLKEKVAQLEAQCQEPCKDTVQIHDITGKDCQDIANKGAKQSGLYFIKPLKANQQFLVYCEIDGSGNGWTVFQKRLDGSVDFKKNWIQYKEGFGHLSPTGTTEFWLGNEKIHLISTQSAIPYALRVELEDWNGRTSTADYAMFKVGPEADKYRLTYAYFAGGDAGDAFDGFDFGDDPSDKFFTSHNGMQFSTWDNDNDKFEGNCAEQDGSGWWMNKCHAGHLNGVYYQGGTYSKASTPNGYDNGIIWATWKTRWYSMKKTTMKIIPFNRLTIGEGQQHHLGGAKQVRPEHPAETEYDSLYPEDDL
Chain of UniProt P02671 (P02671 36-866, chain 1 of 3): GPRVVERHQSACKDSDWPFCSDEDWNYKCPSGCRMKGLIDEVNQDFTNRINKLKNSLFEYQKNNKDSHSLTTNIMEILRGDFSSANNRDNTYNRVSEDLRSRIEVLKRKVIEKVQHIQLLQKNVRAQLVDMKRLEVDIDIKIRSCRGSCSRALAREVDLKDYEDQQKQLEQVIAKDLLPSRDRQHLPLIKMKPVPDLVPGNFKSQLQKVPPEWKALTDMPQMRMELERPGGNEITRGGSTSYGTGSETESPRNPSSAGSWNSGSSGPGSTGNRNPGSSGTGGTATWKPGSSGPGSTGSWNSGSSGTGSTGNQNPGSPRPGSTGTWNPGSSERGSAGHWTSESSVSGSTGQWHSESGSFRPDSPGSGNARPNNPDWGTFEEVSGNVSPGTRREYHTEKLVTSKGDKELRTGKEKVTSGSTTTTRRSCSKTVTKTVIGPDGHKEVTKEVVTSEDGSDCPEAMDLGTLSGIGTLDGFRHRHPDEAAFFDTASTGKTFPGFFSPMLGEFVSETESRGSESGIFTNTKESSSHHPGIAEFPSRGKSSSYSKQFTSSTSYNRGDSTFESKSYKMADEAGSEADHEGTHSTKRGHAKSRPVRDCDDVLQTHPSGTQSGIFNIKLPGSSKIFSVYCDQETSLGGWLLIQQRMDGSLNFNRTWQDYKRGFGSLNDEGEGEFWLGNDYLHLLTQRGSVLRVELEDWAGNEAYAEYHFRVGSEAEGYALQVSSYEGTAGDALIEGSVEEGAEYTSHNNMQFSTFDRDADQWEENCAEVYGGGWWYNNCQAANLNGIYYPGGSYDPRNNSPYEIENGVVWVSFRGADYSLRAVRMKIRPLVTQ
Chain of UniProt P02671 (P02675 45-491, chain 2 of 3, further chain): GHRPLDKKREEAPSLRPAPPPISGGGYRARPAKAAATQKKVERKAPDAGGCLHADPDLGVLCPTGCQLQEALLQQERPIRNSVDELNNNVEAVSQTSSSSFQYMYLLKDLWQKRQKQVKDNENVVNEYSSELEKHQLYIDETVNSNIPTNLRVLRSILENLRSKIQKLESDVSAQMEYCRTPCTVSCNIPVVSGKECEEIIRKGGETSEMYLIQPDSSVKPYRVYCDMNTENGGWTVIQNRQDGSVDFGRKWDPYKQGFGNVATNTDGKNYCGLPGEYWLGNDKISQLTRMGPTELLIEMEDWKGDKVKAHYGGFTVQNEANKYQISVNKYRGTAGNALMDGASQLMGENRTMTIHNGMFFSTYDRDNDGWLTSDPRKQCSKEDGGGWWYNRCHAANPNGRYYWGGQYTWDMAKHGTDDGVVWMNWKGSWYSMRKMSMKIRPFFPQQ
Chain of UniProt P02671 (P02679 other isoform, or with tags, fused parts or gaps, chain 3 of 3, further chain): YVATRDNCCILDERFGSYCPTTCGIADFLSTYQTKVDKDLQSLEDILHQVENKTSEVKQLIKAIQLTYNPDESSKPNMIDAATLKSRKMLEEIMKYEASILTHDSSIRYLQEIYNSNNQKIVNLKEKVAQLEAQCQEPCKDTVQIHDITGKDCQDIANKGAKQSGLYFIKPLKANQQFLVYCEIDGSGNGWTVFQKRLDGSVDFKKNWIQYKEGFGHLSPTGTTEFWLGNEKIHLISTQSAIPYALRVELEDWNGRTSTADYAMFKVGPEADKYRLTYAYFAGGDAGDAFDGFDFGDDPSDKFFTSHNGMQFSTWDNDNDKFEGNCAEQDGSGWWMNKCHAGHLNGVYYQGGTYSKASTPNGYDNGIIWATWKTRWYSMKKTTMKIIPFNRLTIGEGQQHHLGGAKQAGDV

Molecule: platelet integrin αIIbβ3 (from UniProt P05106 27-788) (receptor)
- cumulative binding probability, rupture forces 30–60 pN (fibrinogen (human)): 4.8%
- cumulative binding probability, rupture forces >60 pN (fibrinogen (human)): 3.6%
- highest rupture force (fibrinogen (human)): < 140 pN
- initial probability of the high-affinity state (two-state fit) (fibrinogen (human)): 0.0063
- peak of the strong rupture forces (fibrinogen (human)): 70 to 80 pN
- cumulative binding probability, rupture forces 30–60 pN [1]: 4.7%
- cumulative binding probability, rupture forces >60 pN [1]: 1.7%
- cumulative binding probability, rupture forces 30–60 pN (monomeric fibrin (human)): 21%
- cumulative binding probability, rupture forces >60 pN (monomeric fibrin (human)): 22%
- highest rupture force (monomeric fibrin (human)): < 140 pN
- initial probability of the high-affinity state (two-state fit) (monomeric fibrin (human)): 0.0181
- peak of the strong rupture forces (monomeric fibrin (human)): 70 to 80 pN
- cumulative binding probability, rupture forces 30–60 pN [2]: 4.6%
- cumulative binding probability, rupture forces >60 pN [2]: 3.2%
- initial probability of the high-affinity state (two-state fit) [2]: 0.014
- peak of the strong rupture forces [2]: 70 to 80 pN

Molecule: fibrinogen γC-dodecapeptide (from UniProt P02679-2 426-437)
- cumulative binding probability of αIIbβ3 to m-fibrin with γC-12 present, rupture forces 30–60 pN [3]: 7.4%
- cumulative binding probability of αIIbβ3 to m-fibrin with γC-12 present, rupture forces >60 pN [3]: 12.3%
- cumulative binding probability of αIIbβ3 to fibrinogen with γC-12 present, rupture forces 30–60 pN [4]: 1.8%
- cumulative binding probability of αIIbβ3 to fibrinogen with γC-12 present, rupture forces >60 pN [4]: 0.2%
- cumulative binding probability of αIIbβ3 to p-fibrin with γC-12 present, rupture forces 30–60 pN [5]: 2.1%
- cumulative binding probability of αIIbβ3 to p-fibrin with γC-12 present, rupture forces >60 pN [5]: 0.8%

Molecule: RGDFK (also: cyclic, ring type not given here) [cyclic RGDFK peptide]
- cumulative binding probability of αIIbβ3 to m-fibrin with cRGDFK present, rupture forces 30–60 pN [3]: 5.1%
- cumulative binding probability of αIIbβ3 to m-fibrin with cRGDFK present, rupture forces >60 pN [3]: 2.7%
- cumulative binding probability of αIIbβ3 to fibrinogen with cRGDFK present, rupture forces 30–60 pN [4]: 2.5%
- cumulative binding probability of αIIbβ3 to fibrinogen with cRGDFK present, rupture forces >60 pN [4]: 0.3%
- cumulative binding probability of αIIbβ3 to p-fibrin with cRGDFK present, rupture forces 30–60 pN [5]: 2.2%
- cumulative binding probability of αIIbβ3 to p-fibrin with cRGDFK present, rupture forces >60 pN [5]: 0.6%
